The data set “SEC” concerns the molecule itself. Nature of the data set: SEC.
Data set [1] concerns the target T1, Ebi3 subunit of mouse recombinant IL-35 (rIL-35) (mouse), O35228.
T1 chain: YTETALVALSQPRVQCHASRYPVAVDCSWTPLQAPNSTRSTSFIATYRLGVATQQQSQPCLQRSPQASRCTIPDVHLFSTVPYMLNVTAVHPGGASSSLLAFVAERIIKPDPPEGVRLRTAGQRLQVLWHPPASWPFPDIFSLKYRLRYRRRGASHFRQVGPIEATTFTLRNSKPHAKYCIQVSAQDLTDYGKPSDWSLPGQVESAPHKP
Briefly: SEC. To be noted: remark: other sources report otherwise.

B1: IL-12p35 subunit of mouse recombinant IL-35 (rIL-35) (natural protein, UniProt P43431 23-215, looked up)
chain: RVIPVSGPARCLSQSRNLLKTTDDMVKTAREKLKHYSCTAEDIDHEDITRDQTSTLKTCLPLELHKNESCLATRETSSTTRGSCLPPQKTSLMMTLCLGSIYEDLKMYQTEFQAINAALQNHNHQQIILDKGMLVAIDELMQSLNHNGETLRQKPPVGEADPYRVKMKLCILLHAFSTRVVTINRVMGYLSSA
One may read the stoichiometry N as the number of molecules, sites or subunits per partner or assembly. Consider B1, for which, in the data set “SEC”, the “stoichiometry N” value was found to be 2.

B2: Ebi3 subunit of mouse recombinant IL-35 (rIL-35), O35228 19-228 (natural protein)
chain: T1 chain
As to B2, the stoichiometry N in data set [1] came to 2.

For the origin of these results see paper PMC4581966 (Cytokine & growth factor reviews, 2015).
